Here are results for two molecules from paper PMC6876712, “MglA functions as a three-state GTPase to control movement reversals of Myxococcus xanthus” (Nature Communications, 2019).

Series [1] concerns the target T1, MglB (MglB-2 construct, 6xHis tag cleaved by TEV protease) (M. xanthus), Q1DB03.
T1 chain: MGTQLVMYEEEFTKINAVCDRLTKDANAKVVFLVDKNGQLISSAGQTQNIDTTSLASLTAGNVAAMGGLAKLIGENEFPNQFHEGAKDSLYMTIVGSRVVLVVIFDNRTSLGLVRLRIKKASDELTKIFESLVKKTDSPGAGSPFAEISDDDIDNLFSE
As to the kind of experiment: crystal structure; MglA-GTPγS/MglB complex; equimolar MglA and MglB with 20x GTPγS, purified by SEC; crystals in 0.2 M HEPES pH 7, 16% PEG 4000; 2.8 Å. The following applies: remark: other sources report otherwise. (SEC sorts molecules by how far they enter the pores of the column.)

Series [2] addresses T1, MglB (MglB-2 construct, 6xHis tag …). Put plainly: SEC-MALS; MglB at 3 mg/mL in 20 mM Tris pH 7.5, 50 mM NaCl, 10 mM MgCl2; Superdex 75 10/300 GL. Particulars: remark: other sources report otherwise.
Series [3] deals with the molecule itself. As to the kind of experiment: crystal structure; unbound MglB (MglB-1), form 2 crystals in 0.1 M MES pH 6, 0.15 M ammonium sulfate, 15% PEG 4000; 20 molecules in the asymmetric unit; 2.39 Å.

B1: MglB (MglB-2 construct, 6xHis tag cleaved by TEV protease), Q1DB03 1-159 (natural protein)
chain: MGTQLVMYEEEFTKINAVCDRLTKDANAKVVFLVDKNGQLISSAGQTQNIDTTSLASLTAGNVAAMGGLAKLIGENEFPNQFHEGAKDSLYMTIVGSRVVLVVIFDNRTSLGLVRLRIKKASDELTKIFESLVKKTDSPGAGSPFAEISDDDIDNLFSE
For B1, the stoichiometry N in series [1] and in series [2] was 2 throughout.

B2: MglB (MglB-1 construct, 34-residue N-terminal tag) (natural protein, M. xanthus)
chain: GTQLVMYEEEFTKINAVCDRLTKDANAKVVFLVDKNGQLISSAGQTQNIDTTSLASLTAGNVAAMGGLAKLIGENEFPNQFHEGAKDSLYMTIVGSRVVLVVIFDNRTSLGLVRLRIKKASDELTKIFESLVKKTDSPGAGSPFAEISDDDIDNLFSE
notes: MglB, GAP of MglA, Myxococcus xanthus; residues 133-165 not visible in the crystal; No cleavage of the tag is described
For B2, the “stoichiometry N” value in series [3] came out at 4.

As usually defined, the stoichiometry N is a count of units in the complex or per binding partner.
